Our source for the Kd values is patent US20240400618A1 (GRIFOLS DIAGNOSTIC SOLUTIONS, published 2024).

Like-named read-outs stand apart in the source and are kept apart here.

For test [1], the target named is T1, pxAM-FLS-SSAS-TB-His (SARS-CoV-2, UniProt P0DTC2 15-1213).
The target of test [2] is T1, pxAM-FLS-SSAS-TB-His. The source holds these as a separate data set.
The target in test [3] is T1, pxAM-FLS-SSAS-TB-His. This is another data set of the same source.
Test [4] deals with Brazil, Gamma, pxENB9-FLS-P.1 (SARS-CoV-2, UniProt P0DTC2 15-1213).
Test [5] has as its target US/CA, Epsilon, pxENB9-FLS-B.1.427 (SARS-CoV-2, UniProt P0DTC2 15-1213).
In test [6] the target is India, Delta, pxENB9-FLS-B.1.617.2 (SARS-CoV-2, UniProt P0DTC2 15-1213).

B1: pxEBN4-ACE2-AAA-His (receptor)
chain: QSTIEEQAKTFLDKFNHEAEDLFYQSSLASWNYNTNITEENVQNMNNAGDKWSAFLKEQSTLAQMYPLQEIQNLTVKLQLQALQQNGSSVLSEDKSKRLNTILNTMSTIYSTGKVCNPDAPAECLLLEPGLNEIMANSLDYNERLWAWESWRSEVGKALRPLYEEYVVLKNEMARANHYEDYGDYWRGDYEVNGVDGYDYSRGQLIEDVEHTFEEIKPLYEHLHAYVRAKLMNAYPSYISPIGCLPAHLLGDMWGRFWTNLYSLTVPFGQKPNIDVTDAMVDQAWDAQRIFKEAEKFFVSVGLPNMTQGFWENSMLTDPGNVQKAVCHPTAWDLGKGDFRILMCTKVTMDDFLTAHHEMGHIQYDMAYAAQPFLLRNGANEGFHEAVGEIMSLSAATPKHLKSIGLLSPDFQEDNETEINFLLKQALTIVGTLPFTYMLEKWRWMVFKGEIPKDQWMKKWWEMKREIVGVVEPVPHDETYCDPASLFHVSNDYSFIRYYTRTLYQFQFQEALCQAAKHEGPLHKCDISNSTEAGQKLFNMLRLGKSEPWTLALENVVGAKNMNVRPLLNYFEPLFTWLKDQNKNSFVGWSTDWSPYADGGGSHHHHHHHH
As for B1, the dissociation constant (Kd) with pxAM-FLS-SSAS-TB-His [1] was 0.524 nM; with pxAM-FLS-SSAS-TB-His [2], 5.62 nM; in the test with pxAM-FLS-SSAS-TB-His [3], 0.13 nM; in test [4], 0.00159 nM; in test [5], 1.3 nM; in test [6] it was 2.55 nM.

Usually Kd stands for the free concentration of one partner at which half of the binding sites on the other are occupied at equilibrium, for simple one-to-one binding.
